This note sets out measurements from CN106117361A.

This test deals with CD3 on Jurkat cells (Jurkat靶标细胞) (UniProt P07766). Put plainly: flow cytometry, culture supernatant on Jurkat cells (negative control; TG1 background 132.03). For orientation: Flow cytometry measures light scatter and fluorescence of single cells or particles in a stream.
Sequence of UniProt P07766 (P07766 23-207): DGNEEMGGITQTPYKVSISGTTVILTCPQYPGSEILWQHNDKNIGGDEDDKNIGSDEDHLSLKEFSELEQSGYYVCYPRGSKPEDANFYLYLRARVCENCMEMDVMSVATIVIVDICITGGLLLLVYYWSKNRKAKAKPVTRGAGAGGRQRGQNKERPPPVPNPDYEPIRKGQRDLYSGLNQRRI

For the substance NC-sdAb(相同形式的非相关性sdAb) (VHH), the 结合MFI was found to be 115 MFI.
